In US20200283847, “TEST KIT FOR DETECTING CONCENTRATION OF CARDIOVASCULAR DISEASE-RELATED BIOMARKER AND CONCENTRATION DETECTION METHOD FOR DETECTING CONCENTRATION OF CARDIOVASCULAR DISEASE-RELATED BIOMARKER” (National Tsing Hua University, published 2020):

Tests used:
[1] = biological target: T1, hcTnI (human cardiac troponin I) (Homo sapiens, UniProt P19429 P19429:2-210); experiment: antibody luminescence assay
Procedure: (§1) Firstly, the binding affinities of the first aptamer, the second aptamer, and the third aptamer contained in the test kit for detecting the concentration of the cardiovascular disease-related biomarker of the present disclosure are tested. The surface plasmon resonance (SPR) method is used in the binding affinity test to measure the signal changes and calculate the dissociation constant (Kd) of the first aptamer, the second aptamer and the third aptamer against their respective target proteins. Alternatively, a primary antibody against the target protein and secondary antibody conjugated with an enzyme is used in test. The binding affinities of the first aptamer, the second aptamer, and the third aptamer against their respective target proteins are measured by detecting the intensities of luminescence.
The curves of binding affinity curve are plotted with luminescence intensity of the first aptamer, the second aptamer or the third aptamer with its target protein. The first aptamer, the second aptamer or the third aptamer is bound to the target protein. And then the aptamer-protein complex is incubated with antibodies against target proteins and further with secondary antibodies conjugated with the enzyme, which could produce luminescence when providing substrates. The signal of luminescence of the first aptamer, the second aptamer or the third aptamer is detected. […]

[2] = biological target: T2, BSA (bovine serum albumin) (Bos taurus, UniProt P02769 P02769:25-607); experiment: pulldown; protein-coated magnetic beads, qPCR; also no dose-dependent signal in FIG. 7B
Procedure: (§2) The magnetic beads coated with the target protein or the non-target protein are mixed with the first aptamer, the second aptamer or the third aptamer, and then the magnetic beads are captured by the magnet and the aptamers which are not bound to the magnetic beads are washed away. Then, the magnetic beads are heated to denature the proteins on the magnetic beads for releasing the bound aptamers into the supernatant. Quantitative PCR is performed using the supernatant to analyze the number of residual aptamers, and compared with each other to test the specificity of the first aptamer, the second aptamer, and the third aptamer. In theory, a specific aptamer should only bind to its corresponding target protein, but not to a non-corresponding protein. The aptamers tested in the example are the first aptamer N20a, the second aptamer Tn2, and the third aptamer F03s.
(§3) Please refer to FIGS. 5A, 5B, 5C and 5D, which show specificity analysis results of a test kit for detecting the concentration of the cardiovascular disease-related biomarker according to one embodiment of the present disclosure. […] TT represents the hcTnI with the second aptamer Tn2, NT represents the NT-proBNP protein with the second aptamer Tn2, FT represents the fibrinogen protein with the second aptamer Tn2, and BT represents the BSA protein with the second aptamer Tn2. FF represents the fibrinogen protein with the third aptamer F03s, NF represents the NT-proBNP with the third aptamer F03s, TF represents the hcTnI with the third aptamer F03s, and BF represents the BSA protein with the third aptamer F03s.

[3] = biological target: T3, fibrinogen (UniProt P02671-2;P02675;P02679 P02671-2:20-644,P02675:31-491,P02679:27-453); experiment: as above; conditions: chain copies: 2
Procedure: as §2, §3

[4] = biological target: T4, NT-proBNP (N-terminal pro-brain natriuretic peptide) (UniProt P16860 P16860:27-102); experiment: as above
Procedure: as §2, §3

[5] = biological target: T1, hcTnI (human cardiac troponin I); experiment: SPR
Procedure: as §1

[6] = biological target: T3, fibrinogen; experiment: SPR; conditions: chain copies: 2
Procedure: as §1

[7] = biological target: T2, BSA (bovine serum albumin); experiment: pulldown; protein-coated magnetic beads, qPCR
Excerpt: as §2, with “In the specificity test, the single-stranded DNA of the first aptamer, the second aptamer and the third aptamer are synthesized first. The magnetic” for “The magnetic”
as §3

[8] = biological target: T1, hcTnI (human cardiac troponin I); experiment: pulldown; protein-coated magnetic beads, qPCR
Excerpt: as §2, with “In the specificity test, the single-stranded DNA of the first aptamer, the second aptamer and the third aptamer are synthesized first. The magnetic” for “The magnetic”
as §3

[9] = biological target: T4, NT-proBNP (N-terminal pro-brain …); experiment: pulldown; protein-coated magnetic beads, qPCR
Excerpt: as §2, with “In the specificity test, the single-stranded DNA of the first aptamer, the second aptamer and the third aptamer are synthesized first. The magnetic” for “The magnetic”
as §3

[10] = biological target: T4, NT-proBNP (N-terminal pro-brain …); experiment: SPR
Procedure: as §1

[11] = biological target: T3, fibrinogen; experiment: pulldown; protein-coated magnetic beads, qPCR; conditions: chain copies: 2
Excerpt: as §2, with “In the specificity test, the single-stranded DNA of the first aptamer, the second aptamer and the third aptamer are synthesized first. The magnetic” for “The magnetic”
as §3

T2 sequence (P02769 25-607, one chain of several): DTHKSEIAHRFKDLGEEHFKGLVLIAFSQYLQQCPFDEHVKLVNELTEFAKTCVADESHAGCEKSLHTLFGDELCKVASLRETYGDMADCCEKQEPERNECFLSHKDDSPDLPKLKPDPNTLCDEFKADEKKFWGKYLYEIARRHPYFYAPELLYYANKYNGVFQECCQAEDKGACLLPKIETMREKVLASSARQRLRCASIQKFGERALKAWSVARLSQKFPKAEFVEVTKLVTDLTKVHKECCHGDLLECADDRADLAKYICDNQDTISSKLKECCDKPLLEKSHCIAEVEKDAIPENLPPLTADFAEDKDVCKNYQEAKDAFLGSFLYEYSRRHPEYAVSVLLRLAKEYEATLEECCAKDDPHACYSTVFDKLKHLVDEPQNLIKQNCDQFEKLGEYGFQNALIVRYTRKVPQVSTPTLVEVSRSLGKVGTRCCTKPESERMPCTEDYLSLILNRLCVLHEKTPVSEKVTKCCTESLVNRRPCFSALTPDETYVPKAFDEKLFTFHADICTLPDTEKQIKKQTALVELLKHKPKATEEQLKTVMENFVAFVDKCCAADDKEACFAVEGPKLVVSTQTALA
T1 sequence (P19429 2-210, one chain of several): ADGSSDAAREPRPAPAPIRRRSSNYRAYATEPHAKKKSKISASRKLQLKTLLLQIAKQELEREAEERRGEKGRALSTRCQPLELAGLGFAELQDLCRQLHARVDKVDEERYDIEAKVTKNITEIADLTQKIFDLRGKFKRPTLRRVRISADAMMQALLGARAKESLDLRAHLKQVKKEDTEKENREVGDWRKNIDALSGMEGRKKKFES
T3 sequence (P02671 other isoform, or with tags, fused parts or gaps, chain 1 of 3): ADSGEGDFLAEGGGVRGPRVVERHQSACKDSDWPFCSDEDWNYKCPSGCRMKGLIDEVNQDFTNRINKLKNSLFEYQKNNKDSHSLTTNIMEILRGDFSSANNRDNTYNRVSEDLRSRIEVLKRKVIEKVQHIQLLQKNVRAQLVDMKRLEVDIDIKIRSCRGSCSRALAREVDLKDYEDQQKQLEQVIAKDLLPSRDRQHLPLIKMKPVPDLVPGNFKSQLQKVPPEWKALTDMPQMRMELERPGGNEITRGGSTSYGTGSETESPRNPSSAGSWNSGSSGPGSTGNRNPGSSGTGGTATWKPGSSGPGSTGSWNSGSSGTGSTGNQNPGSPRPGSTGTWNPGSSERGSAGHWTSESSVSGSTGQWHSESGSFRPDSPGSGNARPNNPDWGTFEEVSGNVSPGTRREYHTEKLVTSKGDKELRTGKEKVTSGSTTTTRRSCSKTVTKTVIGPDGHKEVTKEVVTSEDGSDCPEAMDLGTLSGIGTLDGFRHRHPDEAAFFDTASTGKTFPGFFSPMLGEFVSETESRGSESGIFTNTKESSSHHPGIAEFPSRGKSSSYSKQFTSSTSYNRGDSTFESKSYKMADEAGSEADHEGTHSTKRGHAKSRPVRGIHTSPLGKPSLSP
T3 sequence (P02675 31-491, chain 2 of 3): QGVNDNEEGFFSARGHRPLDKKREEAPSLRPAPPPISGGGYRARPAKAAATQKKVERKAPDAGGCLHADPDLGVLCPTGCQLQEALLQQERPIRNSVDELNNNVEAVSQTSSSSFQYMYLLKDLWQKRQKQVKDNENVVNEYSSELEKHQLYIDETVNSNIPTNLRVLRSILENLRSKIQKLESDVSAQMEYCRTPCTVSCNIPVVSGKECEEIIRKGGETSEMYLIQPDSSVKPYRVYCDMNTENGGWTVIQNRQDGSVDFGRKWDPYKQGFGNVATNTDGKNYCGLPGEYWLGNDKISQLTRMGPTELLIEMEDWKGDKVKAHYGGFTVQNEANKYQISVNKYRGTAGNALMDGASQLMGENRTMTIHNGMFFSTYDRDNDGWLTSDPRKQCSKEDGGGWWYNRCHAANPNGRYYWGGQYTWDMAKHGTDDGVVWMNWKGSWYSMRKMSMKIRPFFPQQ
T3 sequence (P02679 27-453, chain 3 of 3): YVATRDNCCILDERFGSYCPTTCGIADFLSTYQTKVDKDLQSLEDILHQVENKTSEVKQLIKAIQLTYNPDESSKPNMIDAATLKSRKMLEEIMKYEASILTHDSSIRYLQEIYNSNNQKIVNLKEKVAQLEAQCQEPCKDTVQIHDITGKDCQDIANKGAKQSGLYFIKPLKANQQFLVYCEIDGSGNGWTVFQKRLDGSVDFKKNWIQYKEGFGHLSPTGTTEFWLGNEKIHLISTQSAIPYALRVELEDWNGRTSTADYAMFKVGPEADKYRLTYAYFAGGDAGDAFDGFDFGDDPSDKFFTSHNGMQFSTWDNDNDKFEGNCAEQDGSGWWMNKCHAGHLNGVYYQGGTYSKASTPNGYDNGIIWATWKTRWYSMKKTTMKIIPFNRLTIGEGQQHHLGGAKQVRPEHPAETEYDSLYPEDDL
T4 sequence (P16860 27-102, one chain of several): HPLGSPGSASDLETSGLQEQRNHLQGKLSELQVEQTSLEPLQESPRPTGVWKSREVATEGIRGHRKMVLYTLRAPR

B1: cTni6 (ssDNA)
DNA: GGCAGGAAGACAAACACGGGGCGGCCGAAACAATGCGTTTCGGACCCAGCAACTCGTGGTCTGTGGTGCTGT
[1]
  Kd: 49.4 nM

B2: Tn2 (ssDNA)
DNA: GGCAGGAAGACAAACACCCAACCGAGGATGCAACGCTTGTTGTCATACTGTGATGTTGGTCTGTGGTGCTGT
[2]
  binding result: no binding
[3]
  binding result: no binding
[4]
  binding result: no binding
[5]
  Kd: 19.8 nM

B3: F03s (ssDNA)
DNA: GGCAGGAAGACAAACAGCACCGGGTCCGAAACAGGCTTAGGTATGATCACAGCTCATGGTCTGTGGTGCTGT
[6]
  Kd: 4.4 nM
[7]
  binding result: no binding
[8]
  binding result: no binding
[9]
  binding result: no binding

B4: cTni3 (ssDNA)
DNA: GGCAGGAAGACAAACAGGGGTACTTAGCATAGGAGTTTTGTTCTGTCGCACCTCGTTGGTCTGTGGTGCTGT
[1]
  Kd: 2.3 nM

B5: N20a (ssDNA)
DNA: GGCAGGAAGACAAACAGGTCGTAGTGGAAACTGTCCACCGTAGACCGGTTATCTAGTGGTCTGTGGTGCTGT
[10]
  Kd: 2.89 nM
[7]
  binding result: no binding
[11]
  binding result: no binding
[8]
  binding result: no binding
